This passage reports Oxidation of protein thiols of human apoB (DTNB reactivity), nmoles SH oxidized, complete mixture, 2 h (nmoles SH oxidized) and Oxidation of protein thiols of human apoB (DTNB reactivity), relative units, complete mixture, 2 h (relative units) results from patent publication US20110217401.

This series addresses human apolipoprotein B (apoB) of serum low density lipoprotein particles (UniProt P04114).

Chain of human apolipoprotein B (apoB) of serum low density lipoprotein particles (P04114 28-4563): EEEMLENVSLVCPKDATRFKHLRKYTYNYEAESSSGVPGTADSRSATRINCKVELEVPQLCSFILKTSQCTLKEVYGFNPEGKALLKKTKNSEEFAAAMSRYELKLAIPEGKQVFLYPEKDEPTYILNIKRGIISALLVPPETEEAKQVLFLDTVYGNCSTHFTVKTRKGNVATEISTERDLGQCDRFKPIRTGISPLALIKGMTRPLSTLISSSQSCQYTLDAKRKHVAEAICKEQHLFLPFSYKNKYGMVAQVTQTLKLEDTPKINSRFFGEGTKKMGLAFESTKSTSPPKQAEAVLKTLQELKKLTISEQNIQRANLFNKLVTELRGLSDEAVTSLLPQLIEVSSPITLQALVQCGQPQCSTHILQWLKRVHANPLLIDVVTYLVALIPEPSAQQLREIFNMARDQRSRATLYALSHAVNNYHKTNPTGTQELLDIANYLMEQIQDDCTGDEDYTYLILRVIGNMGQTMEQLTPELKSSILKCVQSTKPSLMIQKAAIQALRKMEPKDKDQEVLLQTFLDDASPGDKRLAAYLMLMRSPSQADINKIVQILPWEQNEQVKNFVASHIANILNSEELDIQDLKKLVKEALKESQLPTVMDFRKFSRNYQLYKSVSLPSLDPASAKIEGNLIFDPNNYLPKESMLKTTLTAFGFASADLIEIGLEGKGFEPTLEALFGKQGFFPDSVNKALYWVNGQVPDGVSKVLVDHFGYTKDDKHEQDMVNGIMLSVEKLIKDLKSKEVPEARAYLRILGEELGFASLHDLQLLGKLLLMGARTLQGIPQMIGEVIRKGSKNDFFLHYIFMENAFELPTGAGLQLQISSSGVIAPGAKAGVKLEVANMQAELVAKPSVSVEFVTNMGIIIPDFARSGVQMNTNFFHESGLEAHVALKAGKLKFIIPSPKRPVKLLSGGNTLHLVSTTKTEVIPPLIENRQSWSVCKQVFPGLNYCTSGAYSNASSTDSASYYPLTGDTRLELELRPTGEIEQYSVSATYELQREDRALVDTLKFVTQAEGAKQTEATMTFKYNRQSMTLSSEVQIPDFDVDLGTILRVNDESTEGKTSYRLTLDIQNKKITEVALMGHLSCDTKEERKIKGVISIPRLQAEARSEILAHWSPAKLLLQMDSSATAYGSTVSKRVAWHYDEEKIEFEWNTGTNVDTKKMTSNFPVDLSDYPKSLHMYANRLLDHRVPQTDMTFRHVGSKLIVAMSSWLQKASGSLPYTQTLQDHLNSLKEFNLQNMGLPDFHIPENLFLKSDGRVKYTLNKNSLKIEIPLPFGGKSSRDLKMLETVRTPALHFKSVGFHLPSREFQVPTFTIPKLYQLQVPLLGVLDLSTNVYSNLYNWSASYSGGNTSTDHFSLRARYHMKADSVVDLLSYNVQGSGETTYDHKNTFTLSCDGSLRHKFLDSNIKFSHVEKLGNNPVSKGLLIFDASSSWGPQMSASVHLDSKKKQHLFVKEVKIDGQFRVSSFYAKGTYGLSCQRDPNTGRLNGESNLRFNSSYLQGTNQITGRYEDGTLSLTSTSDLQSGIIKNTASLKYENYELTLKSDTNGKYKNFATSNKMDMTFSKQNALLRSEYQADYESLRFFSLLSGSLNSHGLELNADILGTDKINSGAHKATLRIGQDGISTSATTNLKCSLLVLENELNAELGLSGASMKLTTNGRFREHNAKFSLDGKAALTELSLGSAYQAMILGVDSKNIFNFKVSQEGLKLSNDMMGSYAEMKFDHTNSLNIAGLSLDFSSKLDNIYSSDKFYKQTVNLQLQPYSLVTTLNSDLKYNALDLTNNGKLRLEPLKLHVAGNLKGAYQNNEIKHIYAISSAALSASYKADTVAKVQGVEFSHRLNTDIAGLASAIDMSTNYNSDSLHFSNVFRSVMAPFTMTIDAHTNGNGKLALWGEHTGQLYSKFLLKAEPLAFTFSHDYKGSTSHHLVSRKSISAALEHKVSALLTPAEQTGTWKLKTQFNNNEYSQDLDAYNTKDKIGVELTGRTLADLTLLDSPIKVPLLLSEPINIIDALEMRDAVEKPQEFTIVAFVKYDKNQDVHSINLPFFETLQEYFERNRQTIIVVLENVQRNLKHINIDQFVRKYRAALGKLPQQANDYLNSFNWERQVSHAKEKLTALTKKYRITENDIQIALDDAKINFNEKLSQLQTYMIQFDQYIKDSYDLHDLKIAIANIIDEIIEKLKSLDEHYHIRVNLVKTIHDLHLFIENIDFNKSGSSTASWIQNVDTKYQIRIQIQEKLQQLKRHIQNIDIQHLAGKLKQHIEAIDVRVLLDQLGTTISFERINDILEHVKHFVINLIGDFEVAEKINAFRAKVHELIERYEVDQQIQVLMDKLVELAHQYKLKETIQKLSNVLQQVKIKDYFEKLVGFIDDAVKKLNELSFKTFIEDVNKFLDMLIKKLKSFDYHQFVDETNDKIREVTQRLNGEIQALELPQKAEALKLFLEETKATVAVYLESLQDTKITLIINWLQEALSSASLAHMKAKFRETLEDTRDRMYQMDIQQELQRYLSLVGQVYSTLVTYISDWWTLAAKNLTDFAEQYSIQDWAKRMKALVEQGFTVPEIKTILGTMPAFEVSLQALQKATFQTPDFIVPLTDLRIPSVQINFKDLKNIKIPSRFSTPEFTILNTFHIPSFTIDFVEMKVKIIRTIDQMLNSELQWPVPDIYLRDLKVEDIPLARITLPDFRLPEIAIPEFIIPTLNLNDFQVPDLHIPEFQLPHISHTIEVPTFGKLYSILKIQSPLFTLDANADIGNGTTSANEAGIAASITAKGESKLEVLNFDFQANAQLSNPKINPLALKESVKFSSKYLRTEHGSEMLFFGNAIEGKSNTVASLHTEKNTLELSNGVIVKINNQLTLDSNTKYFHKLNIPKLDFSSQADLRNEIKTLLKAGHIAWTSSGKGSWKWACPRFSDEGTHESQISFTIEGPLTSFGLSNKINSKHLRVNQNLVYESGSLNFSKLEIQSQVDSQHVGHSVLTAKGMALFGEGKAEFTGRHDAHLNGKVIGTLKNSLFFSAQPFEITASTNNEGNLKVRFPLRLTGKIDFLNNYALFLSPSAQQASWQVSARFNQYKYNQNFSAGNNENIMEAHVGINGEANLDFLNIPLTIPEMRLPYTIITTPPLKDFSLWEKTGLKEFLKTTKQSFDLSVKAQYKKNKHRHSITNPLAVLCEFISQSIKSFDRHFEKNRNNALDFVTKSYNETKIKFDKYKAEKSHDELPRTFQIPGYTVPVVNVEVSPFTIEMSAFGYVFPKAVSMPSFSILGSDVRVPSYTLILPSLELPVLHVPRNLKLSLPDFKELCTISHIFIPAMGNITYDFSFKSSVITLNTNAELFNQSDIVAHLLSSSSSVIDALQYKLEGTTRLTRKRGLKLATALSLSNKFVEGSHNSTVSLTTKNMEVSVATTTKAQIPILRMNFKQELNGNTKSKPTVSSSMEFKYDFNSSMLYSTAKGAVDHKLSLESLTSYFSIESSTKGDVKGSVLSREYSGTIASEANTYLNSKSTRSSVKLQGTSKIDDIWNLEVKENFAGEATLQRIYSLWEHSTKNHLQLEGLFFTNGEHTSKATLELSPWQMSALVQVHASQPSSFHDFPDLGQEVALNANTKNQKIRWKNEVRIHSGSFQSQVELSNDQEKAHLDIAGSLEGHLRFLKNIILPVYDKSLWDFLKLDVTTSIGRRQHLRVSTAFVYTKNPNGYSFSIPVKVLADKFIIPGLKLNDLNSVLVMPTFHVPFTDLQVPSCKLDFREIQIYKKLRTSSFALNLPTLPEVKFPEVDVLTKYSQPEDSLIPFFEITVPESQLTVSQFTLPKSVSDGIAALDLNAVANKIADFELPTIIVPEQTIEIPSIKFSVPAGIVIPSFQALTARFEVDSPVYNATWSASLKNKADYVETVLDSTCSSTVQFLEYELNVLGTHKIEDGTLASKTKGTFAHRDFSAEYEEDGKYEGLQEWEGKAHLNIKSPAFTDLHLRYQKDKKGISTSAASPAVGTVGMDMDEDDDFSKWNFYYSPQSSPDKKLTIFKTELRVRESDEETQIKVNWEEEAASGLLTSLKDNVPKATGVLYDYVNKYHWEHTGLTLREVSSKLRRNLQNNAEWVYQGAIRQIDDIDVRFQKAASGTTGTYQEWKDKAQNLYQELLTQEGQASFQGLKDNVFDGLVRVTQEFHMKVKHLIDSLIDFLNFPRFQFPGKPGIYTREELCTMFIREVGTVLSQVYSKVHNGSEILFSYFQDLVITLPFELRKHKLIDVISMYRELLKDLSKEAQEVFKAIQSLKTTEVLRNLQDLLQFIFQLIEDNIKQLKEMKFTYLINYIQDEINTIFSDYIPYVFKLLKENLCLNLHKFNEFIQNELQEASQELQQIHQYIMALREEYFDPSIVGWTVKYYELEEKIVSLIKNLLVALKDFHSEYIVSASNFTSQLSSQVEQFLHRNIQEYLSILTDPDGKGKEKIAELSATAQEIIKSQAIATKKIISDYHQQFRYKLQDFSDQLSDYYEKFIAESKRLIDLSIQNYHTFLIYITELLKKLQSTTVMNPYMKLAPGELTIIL

Regarding “recombinant arNOX SF2 (recombinant apoBNOX, TM9SF2 expressed in E. coli from pET11a-TM9SF2)”, the Oxidation of protein thiols of human apoB (DTNB reactivity), nmoles SH oxidized, complete mixture, 2 h (nmoles SH oxidized) is 500 and the Oxidation of protein thiols of human apoB (DTNB reactivity), relative units, complete mixture, 2 h (relative units) is 25.
